This data set is described as follows: soluble on expression in E. coli; label from the status in PepcDB or PDB records.
As for “MGSDKIHHHHHHVLPHQNLSILIFFFTLDKDHFGNEMKNMYSHIIVGAGILGTSTAYHLAKQGANVLLVDRKEAGRATHVAAGIICPWMTQRRNKAWYRLANNGAHYYDKLIPELEALGETTTGYQKVGTIALHETSKIEKMQMIAENRFPEAPAIQRIERLTADQVRSMFPLIEFVEDALFVSGGARVDGRALRAAMERGAIKHAATILEADASLVVVDGHVQGVQIGQDIHYADQVILTAGVWVNELLEPLQTKLDIRAEKGQILHLDISNDQSKEWPVIMGQRGLYLVSIEDGKLALGSTHEKQLDYNLQPTVKGMYALLTRAIPVAPALEEANINEMRVGLRPYTSNSLPVIGRLANHPNVLIANGLGASGLTIGPYLGQELAKLALDQELEIDLNDYLLQ”, the “soluble on expression in E. coli” value is “not soluble”.

In the case of “MGSDKIHHHHHHSESIIEEAVRKGEVLKGEIVPIDTALFRYAYRMRVQGDKAVILDLHNADYYYHVFTYPDFQYQSSFGKRGEGPGESIYAANIRFAGQDTVWVLDDGKGRMYQYSGIAGGKTPKQEKDILLDKRLFRSLDFDLKDASTVVIPDYSGENRFSWASLSSGELLRKSEQIPVSDPELLRESAPAVAQGWNSFVSFSPDKKILVSVTQFGDRLDIYSMASQKHIGELGGDGEPQFKVSPEGYGLPAGRICYYDVQVTDQYIYTIYDGRKFKDIMKLADAYQQGGKILRISTHEGDVVKTYVLDRPIAGIYVDEAAGMLFGLDVNADEQIVKFPLELE”, the “soluble on expression in E. coli” value was “not soluble”.

Turning to “MFMIEVEIFPHRYLKASTTEKFLNKIYDLKTVERVVIHGQPLPKVITYGPARGLPVNHTERKIIHVKGVPVELTVMAGRFWITLSDDSELDKLDEICKEMFPFGYNLRVGKFLKDRPTVTDYIKYGEDGVFLINEMDRRLIGMVDPRSRMANSVTVVEKEEKEELEHHHHHH”, the “soluble on expression in E. coli” value is on record as “soluble”.

On to “MSLIWKRKITLEALNAMGEGNMVGFLDIRFEHIGDDTLEATMPVDSRTKQPFGLLHGGASVVLAESIGSVAGYLCTEGEQKVVGLEINANHVRSAREGRVRGVCKPLHLGSRHQVWQIEIFDEKGRLCCSSRLTTAILEGGSHHHHHH”, for which the “soluble on expression in E. coli” value is “soluble”.

As to “GIPMETKGGTVKAASGFNATEDAQVLRKAMKGLGTDEDAIIGVLACRNTAQRQEIRTAYKSTIGRDLLEDLKSELSSNFEQVILGMMTPTVLYDVQELRRAMKGAGTDEGCLIEILASRNPEEIRRINQTYQQQYGRSLEEDICSDTSFMFQRVLVSLTAGGRDEGNYLDDALVKQDAQDLYEAGEKRWGTDEVKFLSILCSRNRNHLLHVFDEYKRISQKDIEQSIKSETSGSFEDALLAIVKCMRNKPAYFAERLYKSMKGLGTDDSTLIRVMVSRAEIDMLDIRANFKRLYGKSLYSFIKGDTSGDYRKVLLILCGGDD”, the “soluble on expression in E. coli” value is recorded as “soluble”.

Consider “MGSDKIHHHHHHMKRAVGDLIEETMDIVLANPRGFCAGVDRAIIIVEQALEKFGAPIYVRHEVVHNKFVVDDLKKKGAIFVEELDEVPAGNTVIFSAHGVSKDVRAEAEARGLQVFDATCPLVTKVHLEVAKMRASGKEIIMIGHKGHPEVEGTMGQAEGGMYLVESPEDVAMLEVKDPSQLAYVTQTTLSIDDAAAIVSALKAKFPEITPPRSDSICYATQNRQDAVKVMARDCDLVIVVGSPNSSNSNRLREVAQNQGVESYMVDNASFLDPAWIVGKKRIGVSAGASAPEVLVQEVINKLRALGAADVQELNGVVENVVFKIPRNLAEA”, for which the “soluble on expression in E. coli” value is listed as “not soluble”.

Consider “MIIPEYGRTLTPEEWRPVVDEMLEATHIIFTTHENSDGDGLGSQVALALALKALGKEVAIFNPTEVPPNYLFLKELHEINLFRDRDEESMQEFFLADLLVVLDANLHDRIGRLWPHVEFARQMSRLKVLCIDHHLEPEDFADITVCETYASSTGELVCDLVTALELRTGQQLFTPEVASALYAAIMTDTGSFRFPKTTPYTYRLAGMLVEKGADPELVYDRIYNALTPEALKLLGLSLSNIKIIENGLISWLFITQEMLEQTGSKLFDTDLIIRYLLSVPTVKVAVLLVEMQDGRCKVSFRSRGKIYVNQLAKHYGGGGHMNAAGCLLRMSAEKAQLVILEDVRKFTLEQVDS”, for which the “soluble on expression in E. coli” value was “soluble”.

As for “MGSDKIHHHHHHMINKYKVSENRLSIMEIERFAVHDGPGIRTVVFLQGCPLHCSWCSNPESQKRKPHLLHIKNKCIGCGRCEAICPRGNISIQDHFPVFNRQACVACKACERICPQNAIKFVGESITSSEIMEILLRDRDYYLNSGGGVTFSGGEAFTQFEGLMDLLIQCKNEKLHTSVETCGQVNLDKIKQALPLIDLFLFDIKHTDKDLLQKETGANLDTILTNLRYISSKSANKVTIRVPVIPGFNFNENTLREIFMLAKENRIKCVHLLPYHTLGKDKYEQLGLTYPYSCEQMLAKEELFPFKEMGEKMGLEIRIGG”, the “soluble on expression in E. coli” value is “not soluble”.

Turning to “MKLIILDRDGVVNQDSDAFVKSPDEWIALPGSLQAIARLTQADWTVVLATNQSGLARGLFDTATLNAIHDKMHRALAQMGGVVDAIFMCPHGPDDGCACRKPLPGMYRDIARRYDVDLAGVPAVGDSLRDLQAAAQAGCAPWLVQTGNGRKTLAQGGLPEGTRVCEDLAAVAEQLLQEA”, the “soluble on expression in E. coli” value is reported as “soluble”.

On to “RLCKALYSFQARQDDELNLEKGDIVIIHEKKEEGWWFGSLNGKKGHFPAAYVEELPSNAGNTATKA”, for which the “soluble on expression in E. coli” value is reported as “soluble”.

As for “MGSDKIHHHHHHMRGRCPVSRAMMPTGPSGVEVSSVEMPGTKGVSVNLTRSLDGTVFTTLTRLSESVDMIDLVNEAVVQSLDEIAGYEAQLPSAKIATAMCFRAMQSITDYAPTTIEAADRLISNAYEIDPQPVFLAWRAYLRTFLLGESGGGNSQAISEEMERFINLAEEREPGNSIILSLAAFIRSMWLLSSEDALDLAQRSHALNPSNPYGISYLGMVHTHLGNFEEGYRLTRRANALTVPRGAKSSIRYVAMRSAACAGRYTEAIKIGEALGRDAPHFVAPKRLMGLLYMKCGRVADAEAMVETLRQHEPDYSMEKMRDAFRASPLLHRSKLGKAG”, the “soluble on expression in E. coli” value is given as “not soluble”.

For the sequence “MSLKIDAVDLFYLSMPEVTDAADGSQDALLVRVAAGGHIGWGECEAAPLPSIAAFVCPKSHGVCRPVSDSVLGQRLDGPDDIARIAALVGYNSMDLLQAPHMLSGIEMALWDLLGRRLSAPAWALLGYSASHGKRPYASLLFGDTPQETLERARAARRDGFAAVKFGWGPIGRGTVAADADQIMAAREGLGPDGDLMVDVGQIFGEDVEAAAARLPTLDAAGVLWLEEPFDAGALAAHAALAGRGARVRIAGGEAAHNFHMAQHLMDYGRIGFIQIDCGRIGGLGPAKRVADAAQARGITYVNHTFTSHLALSASLQPFAGLEADRICEYPAAPQQLALDITGDHIRPDAEGLIRAPEAPGLGLQVAASALRRYLVETEIRIGGQLIYRTPQLEGHHHHHH”, the “soluble on expression in E. coli” value was “soluble”.

For the sequence “MGSSHHHHHHGKTIFVIVPTNEEQVAFLEALAKQDELNFDWQNPPTEPGQPVVILIPSDMVEWFLEMLKAKGIPFTVYVEEGGSENLYFQGGGGGGMPPPLPHRRATRACALVAAVALVLVLPTSRARTVGMRSMSAYTEAQQLHTRKFLDGFVQSMPDLHNIWTGDDFCAWKGVTCLRDGVSVSATNWVQLAVPPGRLPEVSSADVDVSQVFVTSISVRANGRNLSGTLPASWGLLQNLRKVRLESNSLTGSLPPEWSGLRSLRELYLSNNNLTGTLPASWGESMKSLAILSLDRNALAGTLPPEWGRMKSMQALVLESNQLSGTLPAEWRFMRAASTLMIGRNYLSGTLPHEWAEMSVMEWMDLHSNRLTGWLPAAWATMTLLNTLLLFDNGFTGTLPTEWARLEFLEELRMQDNVLVGTLPASWSAMVLMQVLDISENTLSGTLPVLWSSMQSLDTLSIRDNQLSGSLPIEWRTLPKIMHLHLEGNALCGCLPLNWTSRYVAVEVDEAVTSVNCATENACNDVNLDSISDKISSSCSSSTSPNGGRRR”, the “soluble on expression in E. coli” value was “not soluble”.

Turning to “MNTCPLCHSTDLVAYHHDKRRPYQQCQRCALVSVPAEFYLSRDEEKAEYDKHENHPQDLGYQQFLDRTLAPLLARFESTALGLDFGCGEGKALSLMAQARGYRVENYDLYYANHPELLTRQYDFITLTEVIEHVSDADALLTQLKGMLKPKGILAVMTKRVLNPTAFSTWHYKNDPTHINFYAEATFQWLAEHYGWRLEVIDKDVVFLYQANLEHHHHHH”, the “soluble on expression in E. coli” value is listed as “soluble”.

With “MGSDKIHHHHHHMPRQLPPLYALRAFEAAARLSSFTRAGEELSITQSAISRHIRTLEEHFACRLFVRSGRSLQLTEAGRVLLPGVREGFAAFERACETLCGEDDILRMKAPSTLTMRWLLACLSRFRHLQPGNEVQLTSAWMDVDHVDFNQEPFDCAVLLSDGVFPPEWEVRKLFPELLIPVGAPDLLDEEPWDVCRLASVELLHPTVDKRDWREWLERMGLGDQVSLKGGQVFDTLELGMIAAARGYGISMGDLLMVAEDVAQKRLSLPWPTAVPSGMDYYLVWPRTRRGGERLRRLSAFLEGEVAAMDLPDVEILPRL”, the “soluble on expression in E. coli” value is listed as “not soluble”.

With “MISSWEQKNNCVMPEDVRNFYLMTNGFHMTWSVKLDDHIIPLGSMVINGISKLTQLIQSSVYSLPNAPTLADLEDDSQEGNEDHQLEKPHFDCRSAIFELDSCGGNGKVCLVYKNGKPGLAHDTEIWFLDRALYWHFLTDTFTAYYRLLITHLGLPQWQYAFTSYGISPQAKQWFSMYKPITYNTSLLTEEPDTFVNKLDPSKVFKSKNKILIPKKKGPVQPVSGQKGPGPLAPPTSKPSAGCGNPVRK”, the “soluble on expression in E. coli” value is recorded as “not soluble”.

On to “MKTIRTEEAVGLPLSHDITRIDYGKTKEVCFKKGHIVVQEDIPILLSLGKKHLFVSLDPAEIHEEEAATFLYNLLTDDSCQPSEVHEGKIVAKASTRGLLKVNREKLIALNEIEGLALSTKVTNIEVQKDEKVAAFRVIPLTISKSQLEKARQLSTSEPLISVKPFKKIRVGIVTTGSEVYTGLVEDAFYPVLKAKFSAYPLVTIVKQEIVDDQPQKITVAIKKMLAQGVDLIVCTGGMSVDPDDLTPLAIKQTGAEIVTHGTPVLPGSMFLLAYKGEQTIIGLPGGVLFSEKTVFDLLLPRLMAKEVIKKSEIIDLSYGGYL”, for which the “soluble on expression in E. coli” value is on record as “not soluble”.

Regarding “MSLKEIGPNSLLLEDSHSLSQLLKKNYRWYSPIFSPRNVPRFADVSSITESPETLKAIRDFLVERYRTMSPAPTHILGFDARGFLFGPMIAVELGIPFVLMRKADKNAGLLIRSEPYEKEYKEAAPEVMTIRHGSIGKNSRVVLIDDVLATGGTALSGLQLVEASGAEVVEMVSILTIPFLKAAERIHSTAGGRYKNVRFIGLLSEDVLTEANCGDLNDYTGPRVLSCSDLLVNQ”, the “soluble on expression in E. coli” value is listed as “soluble”.

Regarding “FVEAIHAAEERVWITSPYFIPDEAVTAALTLAVLRGVDVRLLLPSRPDHYVVYAASSLYAFDAVRAGVRVFRYEPGFLHQKVVLVDNDITAIGSANLDNRSFRLNFELMLLTVDSDFSSQVESMLTADFNLAREISVQ”, the “soluble on expression in E. coli” value is “not soluble”.

As for “MGSDKIHHHHHHMDVMVRPSGMPAESGQEPMADGPVAAPFMRLSSKLRDDLYEEVRHDKTWHQRLTWSRGEWTPGSLTSLASRFERSLRWNKVKPEKENFDSPRPTIQSQSICREHLTGTAPEFLSEETLRILTEAVGSAQIKEAVIDMECWERTFLNSEGCSVTTQGKWFDFYASYNTGAALVRWRDGTSTQEEVSRLARPPLPILGRGVTWSEPRTIDTVRYDLVLLSPTASSVVIHELIGHGCEHFREKIVGLRVGPEELRVVAFPKNGSGFDDEGTPSEEIVLVENGIVRHAVRDRATGGMAPFSGLTKVASHGVKPGSRCTHLKAEGESSQEGVTGVPAERTVWIEHFSAANYHSGRAFFRSGLAWVGSREELLYPLMPFTMSIDIYELASLLWHLDGQTERARSGLCNKDGEFLPTFNFAPKIALRPVVSIRP”, the “soluble on expression in E. coli” value is “not soluble”.

The values above are taken from the DeepSol protein solubility set.
